Reference: the supplement of paper PMC9112550, “Optimization of the antimicrobial peptide Bac7 by deep mutational scanning” (BMC Biology, 2022)

What follows are sequences tested on Escherichia coli TOP10 (assay: shrunken log2 fold change of peptide-encoding DNA abundance (4.5 h post-induction vs induction); higher = less antimicrobial activity (less host growth inhibition)). Details: time post-induction: 4.5 h; library: site-saturation at positions 5, 18, 19, 20.
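Further: peptides expressed intracellularly from a pBAD plasmid library in pooled LB shake-flask culture, induced with 0.3% L-arabinose, DNA abundance read by NGS, three biological replicates, DESeq2 with apeglm shrinkage.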

| Sequence | shrunken log2 fold change |
| --- | --- |
| RRIRVRPPRLPRPRPRPAEYPRP | -0.124 |
| RRIRCRPPRLPRPRPRPCANPRP | 0.00335 |
| RRIRSRPPRLPRPRPRPWGNPRP | -0.236 |
| RRIRERPPRLPRPRPRPTAKPRP | 0.0302 |
| RRIRARPPRLPRPRPRPLIGPRP | 0.107 |
| RRIRFRPPRLPRPRPRPRPFPRP | 0.401 |
| RRIRGRPPRLPRPRPRPRYGPRP | 0.134 |
| RRIRGRPPRLPRPRPRPEQPPRP | 1.68 |
| RRIRARPPRLPRPRPRPWDPPRP | 0.496 |
| RRIRHRPPRLPRPRPRPFHLPRP | -0.438 |
| RRIRVRPPRLPRPRPRPIEWPRP | -0.000773 |
| RRIRTRPPRLPRPRPRPCYCPRP | -0.76 |
| RRIRPRPPRLPRPRPRPRMTPRP | 0.288 |
| RRIRCRPPRLPRPRPRPGEAPRP | 0.449 |
| RRIRVRPPRLPRPRPRPCNSPRP | -0.116 |
| RRIRPRPPRLPRPRPRPNATPRP | 0.323 |
| RRIRSRPPRLPRPRPRPQWSPRP | -0.176 |
| RRIRGRPPRLPRPRPRPDDKPRP | 0.22 |
| RRIRFRPPRLPRPRPRPKINPRP | -0.385 |
| RRIRVRPPRLPRPRPRPLWIPRP | -0.189 |
| RRIRNRPPRLPRPRPRPYNSPRP | -1.61 |
| RRIRHRPPRLPRPRPRPTLKPRP | 1.82 |
| RRIRMRPPRLPRPRPRPWIYPRP | -0.169 |
| RRIRYRPPRLPRPRPRPLCPPRP | -0.397 |
| RRIRQRPPRLPRPRPRPLPWPRP | 0.117 |

| Sequence | shrunken log2 fold change |
| --- | --- |
| RRIRGRPPRLPRPRPRPVPCPRP | 0.463 |
| RRIRIRPPRLPRPRPRPTDHPRP | -0.368 |
| RRIRLRPPRLPRPRPRPIYTPRP | -0.377 |
| RRIRARPPRLPRPRPRPNISPRP | 0.0983 |
| RRIRLRPPRLPRPRPRPLDSPRP | 0.0522 |
| RRIRHRPPRLPRPRPRPNPIPRP | -0.023 |
| RRIRFRPPRLPRPRPRPHYEPRP | -0.0922 |
| RRIRMRPPRLPRPRPRPPAWPRP | 1.22 |
| RRIRSRPPRLPRPRPRPNSLPRP | -0.165 |
| RRIRWRPPRLPRPRPRPGVWPRP | 0.519 |
| RRIRCRPPRLPRPRPRPRYGPRP | -0.499 |
| RRIRNRPPRLPRPRPRPHAYPRP | 0.00658 |
| RRIRMRPPRLPRPRPRPFKPPRP | -0.119 |
| RRIRERPPRLPRPRPRPNAAPRP | 0.163 |
| RRIRFRPPRLPRPRPRPFNSPRP | -0.0372 |
| RRIRHRPPRLPRPRPRPVYDPRP | -0.202 |
| RRIRPRPPRLPRPRPRPVVSPRP | -0.0387 |
| RRIRRRPPRLPRPRPRPGTLPRP | -0.0513 |
| RRIRRRPPRLPRPRPRPMPCPRP | 0.0929 |
| RRIRVRPPRLPRPRPRPAMKPRP | -0.187 |
| RRIRPRPPRLPRPRPRPWTYPRP | -0.0785 |
| RRIRWRPPRLPRPRPRPDDDPRP | 3.98 |
| RRIRHRPPRLPRPRPRPIPFPRP | 0.0406 |
| RRIRRRPPRLPRPRPRPRSAPRP | 0.532 |
| RRIRARPPRLPRPRPRPTCIPRP | 0.331 |

| Sequence | shrunken log2 fold change |
| --- | --- |
| RRIRMRPPRLPRPRPRPVFIPRP | -0.137 |
| RRIRYRPPRLPRPRPRPGKVPRP | -0.204 |
| RRIRARPPRLPRPRPRPRDPPRP | 0.948 |
| RRIRYRPPRLPRPRPRPYPAPRP | -0.641 |
| RRIRCRPPRLPRPRPRPAKQPRP | -0.0271 |
| RRIRGRPPRLPRPRPRPMDVPRP | 0.265 |
| RRIRMRPPRLPRPRPRPYGFPRP | -0.00952 |
| RRIRARPPRLPRPRPRPEQFPRP | 0.218 |
| RRIRVRPPRLPRPRPRPCDQPRP | -0.0149 |
| RRIRIRPPRLPRPRPRPTWGPRP | 0.0223 |
| RRIRARPPRLPRPRPRPCAIPRP | -0.00341 |
| RRIRIRPPRLPRPRPRPVLSPRP | -0.311 |
| RRIRDRPPRLPRPRPRPIREPRP | -0.00227 |
| RRIRNRPPRLPRPRPRPMSCPRP | -0.0294 |
| RRIRERPPRLPRPRPRPKFPPRP | 0.0509 |
| RRIRWRPPRLPRPRPRPPFQPRP | 0.248 |
| RRIRVRPPRLPRPRPRPSPKPRP | 0.24 |
| RRIRSRPPRLPRPRPRPSYMPRP | -1.1 |
| RRIRVRPPRLPRPRPRPWPLPRP | -0.183 |
| RRIRVRPPRLPRPRPRPKGVPRP | 0.472 |
| RRIRMRPPRLPRPRPRPLKRPRP | 0.0303 |
| RRIRERPPRLPRPRPRPWWNPRP | -0.0135 |
| RRIRMRPPRLPRPRPRPCSDPRP | 0.0242 |
| RRIRFRPPRLPRPRPRPATPPRP | 0.315 |
| RRIRVRPPRLPRPRPRPPKEPRP | 0.0261 |

| Sequence | shrunken log2 fold change |
| --- | --- |
| RRIRCRPPRLPRPRPRPNKGPRP | -0.302 |
| RRIRRRPPRLPRPRPRPQPDPRP | 0.317 |
| RRIRYRPPRLPRPRPRPGDYPRP | 0.065 |
| RRIRRRPPRLPRPRPRPIMFPRP | -0.0974 |
| RRIRYRPPRLPRPRPRPYGDPRP | -0.525 |
| RRIRERPPRLPRPRPRPQGRPRP | -0.0137 |
| RRIRKRPPRLPRPRPRPMTIPRP | -0.191 |
| RRIRIRPPRLPRPRPRPFCLPRP | -0.739 |
| RRIRARPPRLPRPRPRPSLYPRP | 0.0269 |
| RRIRWRPPRLPRPRPRPIERPRP | 0.0857 |
| RRIRSRPPRLPRPRPRPMHQPRP | -0.0538 |
| RRIRFRPPRLPRPRPRPNLNPRP | -0.504 |
| RRIRNRPPRLPRPRPRPVSNPRP | -0.00917 |
| RRIRNRPPRLPRPRPRPNFQPRP | -0.0807 |
| RRIRARPPRLPRPRPRPFCHPRP | -0.083 |
| RRIRVRPPRLPRPRPRPYSHPRP | -1.25 |
| RRIRWRPPRLPRPRPRPNKFPRP | -0.369 |
| RRIRCRPPRLPRPRPRPRCAPRP | 0.346 |
| RRIRERPPRLPRPRPRPFFQPRP | -0.173 |
| RRIRVRPPRLPRPRPRPGPQPRP | 0.245 |
| RRIRFRPPRLPRPRPRPCLNPRP | -0.244 |
| RRIRNRPPRLPRPRPRPGHCPRP | -0.062 |
| RRIRQRPPRLPRPRPRPHYLPRP | -0.0046 |
| RRIRERPPRLPRPRPRPHGIPRP | -0.00973 |
| RRIRWRPPRLPRPRPRPESCPRP | 0.261 |

| Sequence | shrunken log2 fold change |
| --- | --- |
| RRIRCRPPRLPRPRPRPVMQPRP | -0.166 |
| RRIRARPPRLPRPRPRPGNEPRP | 0.215 |
| RRIRGRPPRLPRPRPRPQGWPRP | 1.04 |
| RRIRYRPPRLPRPRPRPIGMPRP | -0.265 |
| RRIRWRPPRLPRPRPRPNGAPRP | 0.161 |
| RRIRGRPPRLPRPRPRPGHYPRP | 0.00558 |
| RRIRIRPPRLPRPRPRPHINPRP | -0.853 |
| RRIRIRPPRLPRPRPRPRANPRP | 0.0386 |
| RRIRHRPPRLPRPRPRPAEPPRP | 0.19 |
| RRIRARPPRLPRPRPRPRSIPRP | -0.0101 |
| RRIRRRPPRLPRPRPRPSRLPRP | 0.177 |
| RRIRNRPPRLPRPRPRPACFPRP | 0.0188 |
| RRIRLRPPRLPRPRPRPGADPRP | 0.28 |
| RRIRRRPPRLPRPRPRPPFNPRP | 0.333 |
| RRIRLRPPRLPRPRPRPDTWPRP | 0.0224 |
| RRIRERPPRLPRPRPRPAKCPRP | -0.237 |
| RRIRCRPPRLPRPRPRPFRLPRP | -0.0979 |
| RRIRRRPPRLPRPRPRPEHCPRP | -0.00244 |
| RRIRMRPPRLPRPRPRPWWQPRP | 0.183 |
| RRIRQRPPRLPRPRPRPQPGPRP | 0.0446 |
| RRIRQRPPRLPRPRPRPPPLPRP | 0.977 |
| RRIRERPPRLPRPRPRPCDCPRP | 0.00557 |
| RRIRARPPRLPRPRPRPRGYPRP | 0.166 |
| RRIRGRPPRLPRPRPRPCAYPRP | 0.0946 |
| RRIRPRPPRLPRPRPRPIHNPRP | -0.569 |

| Sequence | shrunken log2 fold change |
| --- | --- |
| RRIRCRPPRLPRPRPRPNLMPRP | -0.323 |
| RRIRMRPPRLPRPRPRPNWLPRP | 0.286 |
| RRIRDRPPRLPRPRPRPFFTPRP | -0.024 |
| RRIRHRPPRLPRPRPRPHRAPRP | 0.0912 |
| RRIRPRPPRLPRPRPRPCYSPRP | -0.507 |
| RRIRFRPPRLPRPRPRPFCRPRP | -0.316 |
| RRIRNRPPRLPRPRPRPCKSPRP | -0.0291 |
| RRIRWRPPRLPRPRPRPPLPPRP | 1.07 |
| RRIRNRPPRLPRPRPRPIMMPRP | -0.103 |
| RRIRPRPPRLPRPRPRPYLCPRP | -0.504 |
| RRIRKRPPRLPRPRPRPPLVPRP | 0.598 |
| RRIRQRPPRLPRPRPRPQWHPRP | -0.0165 |
| RRIRCRPPRLPRPRPRPHEIPRP | 0.322 |
| RRIRCRPPRLPRPRPRPIVNPRP | -0.239 |
| RRIRDRPPRLPRPRPRPNFVPRP | -0.0655 |
| RRIRNRPPRLPRPRPRPVTHPRP | 0.0124 |
| RRIRTRPPRLPRPRPRPCHPPRP | -0.0634 |
| RRIRGRPPRLPRPRPRPRWAPRP | 0.702 |
| RRIRRRPPRLPRPRPRPWRWPRP | 0.14 |
| RRIRRRPPRLPRPRPRPMGIPRP | 0.0313 |
| RRIRHRPPRLPRPRPRPVPIPRP | 0.0935 |
| RRIRPRPPRLPRPRPRPSCQPRP | -0.733 |
| RRIRERPPRLPRPRPRPGFMPRP | -0.136 |
| RRIRDRPPRLPRPRPRPMMKPRP | 0.157 |
| RRIRQRPPRLPRPRPRPMWYPRP | -0.298 |
